Results as given in article PMC9587256, “The retaining β-Kdo glycosyltransferase WbbB uses a double-displacement mechanism with an intermediate adduct rearrangement step” (Nature Communications, 2022).
Positions count from the first letter of the chain named.

B1: WbbB_(GT99)-E158Q (domain or fragment)
chain: LAVFLPPYPFRGLKAPYLWMFYKYLHCATDSILFITGEDYLSVTDDEAQRARWEFDPASMASLGYELPNAQSMACHEYLTLDNAFYETLLSRHHHDPIKSFSAFLTERIPDLETELHALLDSKKGIIDQIDTFISICNCPSLEHVARTLGKEVMHIQIGPLRAPMYRNTAYLDFAGVNGGTEASARYEKCQAEFDIKASLGDLHNYFLEVLPPAEAATHSAAGVVLQVEDDSNLIAYNHDFTNISLLSYVRQRYEKEDILVRAHPGSLFRLRDDVFTIDDSANSLAFINQCNEVFTINSSVGLEAILTGKKTTVLGDCSYAFINELAGASATVNAAAFYLFSYLVPFDLVFNQEYLKFRLGHPEEREIVGKHIEFYSADMPGSLSQAAHSLSSLINEAIS
notes: source: ClearColi BL21 (DE3) E. coli, purified (IMAC, desalting)
B2: WbbB_(GT99)-D232N (domain or fragment)
chain: B1 chain with Q157E, D231N
modifications: Kdo modified in ~8% after the CMP-β-Kdo reaction mix; N-terminal methionine removed with variable efficiency
notes: source: ClearColi BL21 (DE3) E. coli, purified (IMAC, desalting), then reacted with the CMP-β-Kdo reaction mix
B3: WbbB_(GT99)-D232C (domain or fragment)
chain: B1 chain with Q157E, D231C
notes: as for B2

Experiments:
WbbBGT99 = biological target: T1, WbbBGT99 (Klebsiella terrigena, UniProt Q6U8B0); experiment: native MS and pepsin MS/MS after NaBH4 reduction of the enzyme-Kdo adduct; type: biochemical; details: covalent; Kdo transferred to Asp232; donor generated in situ from CTP, Kdo and KdsB; Mg; 5 min then NaBH4, room temperature
T1 construct: gene wbbB; WbbBGT99-His6 in pET28a, expressed in E. coli BL21(DE3) or ClearColi BL21(DE3); dimer in native MS

[1] = biological target: the molecule itself; experiment: native MS; nanoESI, positive mode, UHMR Orbitrap; aqueous ammonium acetate 200 mM, pH 7, 25 °C; +21 charge state of the dimer; before or after reaction with the CMP-Kdo reaction mix

T1 sequence (Q6U8B0 entry or part of it): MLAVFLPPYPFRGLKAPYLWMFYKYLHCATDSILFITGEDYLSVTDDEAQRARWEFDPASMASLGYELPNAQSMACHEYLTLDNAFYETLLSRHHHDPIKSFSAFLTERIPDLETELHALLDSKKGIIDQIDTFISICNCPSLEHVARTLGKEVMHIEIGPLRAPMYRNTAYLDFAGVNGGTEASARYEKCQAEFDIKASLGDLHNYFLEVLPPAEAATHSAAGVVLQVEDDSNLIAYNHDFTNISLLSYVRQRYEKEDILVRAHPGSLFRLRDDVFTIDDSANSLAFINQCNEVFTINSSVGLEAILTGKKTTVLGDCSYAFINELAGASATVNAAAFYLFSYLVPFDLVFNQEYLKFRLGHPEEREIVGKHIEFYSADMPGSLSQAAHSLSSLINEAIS

Row | Molecule | native MS and pepsin MS/MS after NaBH4 reduction of the enzyme-Kdo adduct (WbbBGT99) | stoichiometry N [1]
1 | Nc1ccn([C@@H]2O[C@H](COP(=O)(O)O[C@@]3(C(=O)O)C[C@@H](O)[C@@H](O)[C@@H]([C@H](O)CO)O3)[C@@H](O)[C@H]2O)c(=O)n1 [CMP-β-Kdo] | Asp232 is the sole residue that has been converted to homoserine | 
2 | B1 |  | 2
3 | B2 |  | 2
4 | B3 |  | 2
